Assay results taken from patent US20240336649A1 (MIT, published 2024).

B1: Myc analog 10 (synthetic Myc monomer with a C-terminal cysteine) (other)
chain: NVKRRTHNVLERQRRNELKRSFFALRDQIPELENNEKAPKVVILKKATAYILSVQAEEQKLISEEDLLRKRREQLKHKLEQLGGC
notes: also called Myc 10
B2: Omomyc analog 12 (synthetic Omomyc monomer with a C-terminal cysteine) (other)
chain: MATEENVKRRTHNVLERQRRNELKRSFFALRDQIPELENNEKAPKVVILKKATAYILSVQAETQKLISEIDLLRKQNEQLKHKLEQLRNSC
notes: Artificial mini-protein; the structure of 12 is in a drawing; also called Omomyc 12; Omomyc (12)

Experiments:
[1] = biological target: the molecule itself; assay: EMSA with a 22 bp double-stranded E-box DNA probe. This is an indirect sign: the gel shows DNA binding, and the filing reads the missing shift as missing homodimerisation.
Source text: (§1) The three synthetic analogs 10, 11, and 12 can form non-covalent dimers and bind to the target E-box DNA (5′-[…]-3′). […] However, it is not possible to determine which dimeric species form in a solution containing two different monomers. For instance, upon mixing Max (11) and Omomyc (12), three different dimers (Max/Max, Omomyc/Omomyc and Max/Omomyc) can form and potentially bind to DNA (FIG. 18). To assess the activity of these protein complexes in a reliable manner, access to well-defined covalent protein dimers is critical.

[2] = biological target: the molecule itself; assay: non-covalent homodimer inferred from EMSA with E-box DNA (Omomyc+Omomyc)
Source text: as §1

Protein	binding result [1]	binding result [2]
B1	no binding	–
B2	–	binds
